Source: patent US20100292153A1 (US Dept. of Health and Human Services, published 2010)

Target: T1, TRAF2 (untagged) (UniProt Q12933 1-501, limits assumed)
T1 construct: Negative control
T1 sequence (looked up): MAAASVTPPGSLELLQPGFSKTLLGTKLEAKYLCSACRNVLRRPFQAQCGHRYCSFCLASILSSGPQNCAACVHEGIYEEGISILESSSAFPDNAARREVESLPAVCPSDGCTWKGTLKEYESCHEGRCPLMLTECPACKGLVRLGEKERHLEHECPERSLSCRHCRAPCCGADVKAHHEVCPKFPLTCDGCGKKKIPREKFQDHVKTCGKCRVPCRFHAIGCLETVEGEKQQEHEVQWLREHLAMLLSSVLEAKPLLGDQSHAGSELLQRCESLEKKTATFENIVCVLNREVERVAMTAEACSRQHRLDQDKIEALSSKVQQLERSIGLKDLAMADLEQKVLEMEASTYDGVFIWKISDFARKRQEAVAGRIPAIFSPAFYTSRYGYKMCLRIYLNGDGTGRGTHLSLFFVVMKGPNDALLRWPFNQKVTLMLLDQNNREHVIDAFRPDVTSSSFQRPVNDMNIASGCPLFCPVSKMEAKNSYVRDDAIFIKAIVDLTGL
Assay: co-immunoprecipitation from transfected HEK293 cells (anti-FLAG beads, anti-TRAF2 immunoblot)
Method: Whole cell lysates were prepared 48 hrs after the transfection and were incubated with anti-FLAG conjugated beads (Sigma) overnight.

B1: FLAG-tagged human IRF4 (other, UniProt Q15306 1-451, looked up)
chain: MNLEGGGRGGEFGMSAVSCGNGKLRQWLIDQIDSGKYPGLVWENEEKSIFRIPWKHAGKQDYNREEDAALFKAWALFKGKFREGIDKPDPPTWKTRLRCALNKSNDFEELVERSQLDISDPYKVYRIVPEGAKKGAKQLTLEDPQMSMSHPYTMTTPYPSLPAQQVHNYMMPPLDRSWRDYVPDQPHPEIPYQCPMTFGPRGHHWQGPACENGCQVTGTFYACAPPESQAPGVPTEPSIRSAEALAFSDCRLHICLYYREILVKELTTSSPEGCRISHGHTYDASNLDQVLFPYPEDNGQRKNIEKLLSHLERGVVLWMAPDGLYAKRLCQSRIYWDGPLALCNDRPNKLERDQTCKLFDTQQFLSELQAFAHHGRSLPRFQVTLCFGEEFPDPQRQRKLITAHVEPLLARQLYYFAQQNSGHFLRGYDLPEHISNPEDYHRSIRHSSIQE
notes: Expressed by transfection in HEK293 cells; pulled down from whole cell lysates with anti-FLAG beads; it is entered under this molecule; also called IFN-regulatory factor 4; FLAG-tagged IRF4; not shown: FLAG tag
**Q.** Does B1 bind?
**A.** Result: no binding
